Measurements from US10716826B2, “Compositions for overcoming anti-cancer drug-resistance or compositions for anti-cancer activity employing CAGE-derived peptides” (L-Base Co., Ltd., priority 2015, dated 2020).
Entries after “also recorded” stand apart in the source; their conditions may differ.

Tests used:
[1] = system: Malme3M^R, SNU38M^R cell strains; experiment: apoptosis against an anticancer drug (FAK and PARP cleavage, Western blot); format: cell-based; details: melanoma and liver cancer cell strains
CAGE-GSK3β inter-binding [2] = target: T1, CAGE-GSK3β inter-binding (Homo sapiens, UniProt Q86TM3); experiment: Western blot and immunoprecipitation in taxol-resistance melanoma cell strain; format: cell-based; design: endogenous in cells; host or cells: Malme3M^R-Taxol (A2); Malme3M^R, SNU387^R (printed SNU3SM^R/SNU38^R), AGS^R (A3); details: Malme3M^R-Taxol; for CAGE-GSK3β inter-binding: immunoprecipitation
Description: (§1) To confirm an affection of CAGE-derived oligopeptide to the interbinding and GSK3β Ser9 phosphorylation of a CAGE, a GTGKT (Sequence No.1) peptide and a specific-residue deleted and mutated peptide based on the GTGKT peptide were prepared and, after collecting proteins by a known method after transfection into respective cell stains, the Western blot and the immunoprecipitation were preformed to inspect an anticancer drug-resistance induction mechanism of the CAGE. GTGKT includes ATP binding sites of CAGE (the right panel of FIG. 3A).
To examine residues necessary for anticancer activity of a GTGKT peptide, after preparing a peptide for which the 273′rd Thr residue is deleted (GTGK) or substituted (GTGKA, sequence No. 2) with Ala in CAFE, and preparing a peptide for which the 272′nd […] residue is substituted (GTGRT) with Arg, the same manner was performed.

CAGE-GSK3β inter-binding [3] = target: T1, CAGE-GSK3β inter-binding; experiment: Western blot and immunoprecipitation in celastrol-resistance cell strains; format: cell-based; design: endogenous in cells; host or cells: Malme3M^R-Taxol (A2); Malme3M^R, SNU387^R (printed SNU3SM^R/SNU38^R), AGS^R (A3); details: for expression level of Cyclin D1 / inter-binding between CAGE and GSK3β proteins: celastrol-resistance cell strains (melanoma, liver cancer, gastric cancer)
Description: as §1

[4] = target: reassociated CAGE protein (Homo sapiens, UniProt Q86TM3); experiment: in vitro kinase assay: phosphorylation of GSK3β Ser9 peptide by reassociated CAGE protein; format: biochemical; details: RTTSFAE peptide as substrate
Description: A GSK3β-described peptide RTTSFAE including GSK3β Ser9 residues was prepared for a temperament (the left panel of FIG. 3A) and phosphorylation of the GSK3β Ser9 residues by a reassociated CAGE protein was confirmed through an in vitro kinase assay by using the RTTSFAE peptide as the temperament (the left panel of FIG. 4B).

[5] = system: Malme3M^R, SNU38M^R, AGS^R cell strains; experiment: MTT assay of anticancer drug resistance; format: cell-based; details: celastrol-resistance cell strains
Description: To confirm anticancer activity of a GTGKT-based oligopeptide, the MIT assay and the western blot according to a known method was performed using an immunodeficiency mouse. Then, it could be seen how the GKCKT-based oligopeptide affected tumor generation.
After transfecting a GTGKT peptide into melanoma, liver-cancer, and gastric-cancer cell strains (Malme3M^R, SNU38M^R, AGS^R) by concentration, anticancer drug resistance was inspected through the MTT assay.

[6] = system: tumor from Malme3MR, SNU38R cell strains; experiment: tumor generation in immunodeficiency mouse, peptide injected into tail vein; format: in vivo; details: 5 times in total every 3 days for 2 weeks
Description: If a tumor grew up to a size enough to be measured, a digital gauge was used to a size of the tumor in a uniform interval and the tumor size was calculated by a known equation (the widest length [the shortest length]^2×0.5). After inducing a tumor in the same manner, taxol was injected into a vein of the mouse's tail for inspection to tumor generation and anticancer drug resistance.
To inspect an affection of GKGKT peptide to tumor generation, after injecting high-CAGE melanoma and liver-cancer cell strains (Malme3MR, SNU38R) into the side abdomen of an immunodeficiency mouse by a known method and then inducing a tumor, the GTGKT peptide was injected into a vein of the mouse's tail 5 times in total every 3 days for 2 weeks and a size variation of the tumor was examined. As a result, it could be seen from FIG. 8A that the GTGKT peptide reduced a size of the tumor due to the cancer cell strains.

CAGE = target: T2, CAGE (Homo sapiens, UniProt Q86TM3); experiment: binding of peptide to CAGE in anticancer drug-resistance cell strains
T2 construct: endogenous in cells; host or cells: anticancer drug-resistance cell strains (Malme3M^R, SNU387^R)

CAGE-GSK3β inter-binding [7] = target: T1, CAGE-GSK3β inter-binding; experiment: Western blot and immunoprecipitation of tumor tissue after the mouse experiment; format: in vivo; design: from tissue; host or cells: xenograft tumour tissue from Malme3M^R / SNU387^R cells in immunodeficiency mouse
Text: After finishing the experiment, a protein was collected from the tumor tissue through a known method, and then activity of protein expression and an inter-binding state were conformed through the Western blot and the immunoprecipitation.

T1 sequence (Q86TM3 whole entry): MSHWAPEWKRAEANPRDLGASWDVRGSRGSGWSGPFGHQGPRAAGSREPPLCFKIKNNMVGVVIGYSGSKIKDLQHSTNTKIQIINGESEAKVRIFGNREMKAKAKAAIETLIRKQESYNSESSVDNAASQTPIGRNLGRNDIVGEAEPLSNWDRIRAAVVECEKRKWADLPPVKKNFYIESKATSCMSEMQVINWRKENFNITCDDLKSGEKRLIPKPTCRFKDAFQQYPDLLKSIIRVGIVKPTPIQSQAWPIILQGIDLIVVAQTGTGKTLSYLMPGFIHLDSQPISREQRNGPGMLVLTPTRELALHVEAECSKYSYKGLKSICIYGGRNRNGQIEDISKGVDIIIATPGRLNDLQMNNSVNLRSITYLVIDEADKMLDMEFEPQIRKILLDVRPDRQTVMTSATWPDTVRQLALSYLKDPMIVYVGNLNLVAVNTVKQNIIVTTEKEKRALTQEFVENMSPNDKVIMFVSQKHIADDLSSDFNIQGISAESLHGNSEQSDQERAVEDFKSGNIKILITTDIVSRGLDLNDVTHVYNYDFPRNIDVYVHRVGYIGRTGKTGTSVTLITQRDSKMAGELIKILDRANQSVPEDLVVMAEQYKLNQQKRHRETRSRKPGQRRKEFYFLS
Sequence of reassociated CAGE protein (Q86TM3 whole entry): as above
T2 sequence (Q86TM3 whole entry): as above

Row | protein accumulation / expression level of Cyclin D1 (CAGE-GSK3β inter-binding [2]; Western blot) | CAGE-GSK3β inter-binding (CAGE-GSK3β inter-binding [2]) | inter-binding between CAGE and GSK3β proteins (CAGE-GSK3β inter-binding [3]) | phosphorylation of GSK3β Ser9 residues due to the reassociated CAGE protein [4] | phosphorylation of GSK3β Ser9 residues due to the reassociated CAGE protein ([4]; listed as GTCKT) | binding to CAGE (CAGE) | expression of MDR1 in tumor tissue (CAGE-GSK3β inter-binding [7]; Western blot) | phosphorylation state of GSK3β Ser9 in tumor tissue (CAGE-GSK3β inter-binding [7]; Western blot) | protein expression of Cyclin D1 in tumor tissue (CAGE-GSK3β inter-binding [7]; Western blot) | inter-binding between CAGE and GSK3β proteins in tumor tissue (CAGE-GSK3β inter-binding [7]; immunoprecipitation) | phosphorylation of GSK3β Ser9 residues (CAGE-GSK3β inter-binding [2]; Western blot) | phosphorylation state of GSK3β Ser9 (CAGE-GSK3β inter-binding [3]; Malme3M^R, SNU38^R treated with peptide) | Substance | apoptosis against an anticancer drug [1] | expression level of Cyclin D1 (CAGE-GSK3β inter-binding [3]) | anticancer drug resistance [5] | size of the tumor [6]
1 | control an expression level of Cyclin D1 | suppressed | suppress |  |  |  |  |  |  |  |  |  | GTGKA (CAGE-derived peptide) [GTGKT peptide in which the 273rd Thr residue is substituted with Ala] | induced cell apoptosis | control an expression level of Cyclin D1 |  | 
2 | suppress | hindered | suppress; also recorded: hindered | suppressed in phosphorylation | suppressed | bound specifically | reduced | dephosphorylation | decrease | suppressed | suppress | suppressed dephosphorylation | GTGKT (CAGE-derived peptide) | induced apoptosis | control an expression level of Cyclin D1; also recorded: suppressed | suppressed | reduced
